Measured values from patent publication US20230333112A1 (published 2023).

Key:
[1] = biological target: T1, NKp30 coated on the ELISA plate (Example 14) (UniProt O14931 19-135); experiment: ELISA
T1 chain: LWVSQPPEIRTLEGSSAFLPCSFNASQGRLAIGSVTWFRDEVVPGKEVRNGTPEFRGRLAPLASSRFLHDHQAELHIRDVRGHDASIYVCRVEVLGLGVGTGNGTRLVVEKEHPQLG

[2] = biological target: T1, NKp30 coated on the ELISA plate …; experiment: competition ELISA; blocking of B7-H6 binding to NKp30

B1: B7-H6 (ligand)
chain: DLKVEMMAGGTQITPLNDNVTIFCNIFYSQPLNITSMGITWFWKSLTFDKEVKVFEFFGDHQEAFRPGAIVSPWRLKSGDASLRLPGIQLEEAGEYRCEVVVTPLKAQGTVQLEVVASPASRLLLDQVGMKENEDKYMCESSGFYPEAINITWEKQTQKFPHPIEISEDVITGPTIKNMDGTFNVTSCLKLNSSQEDPGTVYQCVVRHASLHTPLRSNFTLTAARHSLSETEKTDNFS
For B1, the Kd [1] was 6.56 nM.

B2: BJM1042 (bispecific anti-TRBC1/NKp30 antibody) (bispecific antibody)
heavy: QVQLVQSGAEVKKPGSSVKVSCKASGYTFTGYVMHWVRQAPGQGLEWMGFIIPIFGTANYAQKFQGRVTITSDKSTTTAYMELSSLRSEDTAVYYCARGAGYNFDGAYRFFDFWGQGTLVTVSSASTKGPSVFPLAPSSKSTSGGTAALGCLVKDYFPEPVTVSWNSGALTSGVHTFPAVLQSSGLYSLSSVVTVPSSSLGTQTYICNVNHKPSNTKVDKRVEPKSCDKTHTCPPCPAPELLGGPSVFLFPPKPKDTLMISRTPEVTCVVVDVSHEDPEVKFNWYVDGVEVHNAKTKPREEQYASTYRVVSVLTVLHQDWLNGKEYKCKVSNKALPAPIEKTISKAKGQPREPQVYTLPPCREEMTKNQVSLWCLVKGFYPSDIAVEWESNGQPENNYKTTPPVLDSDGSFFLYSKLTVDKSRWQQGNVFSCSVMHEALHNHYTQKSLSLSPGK
light: DVVMTQSPLSLPVTLGQPASISCRSSQRLVHSNGNTYLHWYQQRPGQSPRLLIYRVSNRFPGVPDRFSGSGSGTDFTLKISRVEAEDVGVYFCSQSTHVPYTFGGGTKVEIKRTVAAPSVFIFPPSDEQLKSGTASVVCLLNNFYPREAKVQWKVDNALQSGNSQESVTEQDSKDSTYSLSSTLTLSKADYEKHKVYACEVTHQGLSSPVTKSFNRGEC
chain: EIQLLESGGGLVQPGGSLRLSCAVSGFSITTTGYHWNWVRQAPGKGLEWVGYIYSSGSTSYNPSLKSRFTISRDTSKNTFYLQMNSLRAEDTAVYYCARGDWHYFDYWGQGTMVTVSSGGGGSGGGGSGGGGSGGGGSDSVTTQSPLSLPVTLGQPASISCSGEKLSDKYVHWYQQRPGQSPRMLIYENDRRPSGVPDRFSGSNSGNDATLKISRVEAEDVGVYFCQFWDSTNSAVFGGGTKVEIKDKTHTCPPCPAPELLGGPSVFLFPPKPKDTLMISRTPEVTCVVVDVSHEDPEVKFNWYVDGVEVHNAKTKPREEQYASTYRVVSVLTVLHQDWLNGKEYKCKVSNKALPAPIEKTISKAKGQPREPQVCTLPPSREEMTKNQVSLSCAVKGFYPSDIAVEWESNGQPENNYKTTPPVLDSDGSFFLVSKLTVDKSRWQQGNVFSCSVMHEALHNHYTQKSLSLSPGK
With B2 the Kd [1] was 0.578 nM and the IC50 [2] was 29.4 nM.
